2 substances from article PMC4600761 can be followed below.

Assay [1] addresses mtq-Syx (mTurquoise fused to the N terminus of syntaxin1A) (rat) (UniProt P32851). In words: FRET or BRET; two-photon FLIM, A1 fraction; rat cortical neurons in dissociated culture after chemical fixation and counterstaining with anti-synaptophysin antibody.
Assay [2] deals with mtq-SNAP25b (mTurquoise fused to the N terminus of synaptosomal-associated protein 25b) (mouse) (UniProt P60879). In words: FRET or BRET; two-photon FLIM, time-lapse (1.8 s), A1 from average lifetime (τ1 0.5 ns assumed); β cells in mouse islets stimulated with 16 mM glucose, region of 0.5 μm diameter around single exocytotic events.
Assay [3] concerns the target mtq-Syx (mTurquoise fused to the N terminus of syntaxin1A) (rat) (UniProt P32851). The experiment in a line: FRET or BRET; two-photon FLIM, A1 fraction; plasma membrane of β cells in mouse islets of Langerhans, probes by lentivirus, resting state. (In general: BRET reads energy transfer from a luciferase to a nearby fluorophore.)
For assay [4], the target named is mtq-SNAP25b (mTurquoise fused to the N terminus of synaptosomal-associated protein 25b) (mouse) (UniProt P60879). The description is as above.
In assay [5] the target is mtq2-Syx (mTurquoise2 fused to the N terminus of syntaxin1A) (rat) (UniProt P32851). In words: FRET or BRET; two-photon FLIM, A1 fraction; Schaffer collateral boutons and axons in the CA1 region of rat hippocampal slice culture, probes by AAV1, resting.
The target of assay [6] is mtq-Syx (mTurquoise fused to the N terminus of syntaxin1A) (rat) (UniProt P32851). In words: FRET or BRET.
The target in assay [7] is mtq-SNAP25b (mTurquoise fused to the N terminus of synaptosomal-associated protein 25b) (mouse) (UniProt P60879). In words: FRET or BRET.
The target in assay [8] is mtq-Syx (mTurquoise fused to the N terminus of syntaxin1A) (rat) (UniProt P32851). The experiment in a line: FRET or BRET; two-photon FLIM of the mtq donor; fast decay component (A1 fraction) taken as the binding fraction of the donor; live rat cortical neurons in dissociated culture, lipofected, resting; boutons and axons.
Assay [9] concerns the target mtq-SNAP25b (mTurquoise fused to the N terminus of synaptosomal-associated protein 25b) (mouse) (UniProt P60879). The assay is described as above.
Assay [10] concerns the target Syx-mtq2 (mTurquoise2 fused to the C terminus of syntaxin1A) (rat) (UniProt P32851). In words: FRET or BRET; two-photon FLIM, A1 fraction; Schaffer collateral boutons in rat hippocampal slice culture, probes by AAV1, during 300 mM sucrose stimulation.
Assay [11] has the same target. The experiment in a line: FRET or BRET; two-photon FLIM, A1 fraction; Schaffer collateral boutons and axons in the CA1 region of rat hippocampal slice culture, probes by AAV1, resting.
Assay [12] concerns the target Syx-mtq (mTurquoise fused to the C terminus of syntaxin1A) (rat) (UniProt P32851). In words: FRET or BRET; two-photon FLIM of the mtq donor; fast decay component (A1 fraction) taken as the binding fraction of the donor; live rat cortical neurons in dissociated culture, lipofected, resting; boutons and axons.
Assay [13] has the same target. In words: FRET or BRET; two-photon FLIM, time-lapse (18 s accumulation); rat cortical neurons in dissociated culture during 300 mM sucrose stimulation; A1 from decay curve fitting or from average lifetime (τ1 0.5 ns assumed).

mtq-SNAP25b (mTurquoise fused to the N terminus of synaptosomal-associated protein 25b) (mouse), sequence (P60879 whole entry, the tested form may be a part): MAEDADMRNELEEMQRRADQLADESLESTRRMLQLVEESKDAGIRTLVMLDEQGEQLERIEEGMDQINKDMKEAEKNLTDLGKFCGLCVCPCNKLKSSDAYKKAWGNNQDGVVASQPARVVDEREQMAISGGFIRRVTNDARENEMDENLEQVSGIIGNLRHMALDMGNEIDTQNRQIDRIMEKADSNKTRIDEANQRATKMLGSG
mtq-Syx (mTurquoise fused to the N terminus of syntaxin1A) (rat), sequence (P32851 whole entry, the tested form may be a part): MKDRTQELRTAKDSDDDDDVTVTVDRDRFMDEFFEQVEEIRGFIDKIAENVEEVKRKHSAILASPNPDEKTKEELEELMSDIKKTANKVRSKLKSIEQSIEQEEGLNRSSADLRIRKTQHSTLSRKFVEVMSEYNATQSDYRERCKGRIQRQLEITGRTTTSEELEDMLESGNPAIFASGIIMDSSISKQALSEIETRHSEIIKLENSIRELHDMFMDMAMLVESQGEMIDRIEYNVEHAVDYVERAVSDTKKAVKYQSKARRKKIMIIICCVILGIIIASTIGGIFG
Syx-mtq (mTurquoise fused to the C terminus of syntaxin1A) (rat), sequence (P32851 whole entry, the tested form may be a part): as above
mtq2-Syx (mTurquoise2 fused to the N terminus of syntaxin1A) (rat), sequence (P32851 whole entry, the tested form may be a part): as above
Syx-mtq2 (mTurquoise2 fused to the C terminus of syntaxin1A) (rat), sequence (P32851 whole entry, the tested form may be a part): as above

For the substance “Ven-VAMP2 (Venus fused to the N terminus of vesicle-associated membrane protein 2) (from UniProt P63045 1-116) (natural protein)”, in assay [1], the A1 fraction (binding fraction), boutons, after fixation came to 33.2%; the A1 fraction (binding fraction), pixels in axons is 15.6%; the A1 fraction (binding fraction), pixels of boutons negative for synaptophysin turned out to be 17.4%; the A1 fraction (binding fraction), pixels of boutons positive for synaptophysin is 38.8%. Moreover, in assay [2], the peak A1 fraction (binding fraction) before single exocytotic events, averaged traces of 61 events, 16 mM glucose was 8.3%. Further, the A1 fraction (binding fraction), plasma membrane of resting β cells in assay [3] is < 2%. Moreover, the A1 fraction (binding fraction), plasma membrane of resting β cells in assay [4] is < 2%. Further, in assay [5], the mean trans-SNARE fraction in boutons (A1b−A1a) is 11.9% and the trans-SNARE fraction in the active zone (A1s–A1a), spines with volumes >0.25 is 27.7%. This substance also showed an other in assay [6] of 16.3%. The other in [7] amounted to 14.5%. Moreover, in assay [8], the A1 fraction (binding fraction), axons worked out at 22.4%; the A1 fraction (binding fraction), boutons, live is 34.1%; the trans-SNARE fraction in each bouton (A1b−A1a) worked out at 11.6%. In assay [9], the A1 fraction (binding fraction), axons was found to be 22.7% and the A1 fraction (binding fraction), boutons amounted to 36.7%.

Regarding “VAMP2-Ven (Venus fused to the C terminus of VAMP2) (from UniProt P63045 1-116) (natural protein)”, the A1 fraction (FRET of cis-complexes), boutons, during sucrose stimulation in assay [10] is 13.6%. In assay [11], this substance gave an A1 fraction (FRET of cis-complexes), boutons, resting state of 3.7%. In assay [12], this substance showed an A1 fraction (binding fraction, cis-complex), axons of 21.5% and an A1 fraction (binding fraction, cis-complex), boutons of 24.7%. In addition, in [13], the increase in the A1 fraction in boutons on 300 mM sucrose (average lifetime) was 12.9% and the increase in the A1 fraction in boutons on 300 mM sucrose (decay curve fitting) is 11.8%.
